The values below come from patent US20200270347A1.

Holding throughout (assay): SPR, TYRP1 ECD-Fc captured with anti-PGLALA antibody, 1:1 Langmuir
On the technique in general: In SPR one partner is held on a chip, and binding of the other changes the refractive index at the surface.

Assay [1] concerns the target Mouse TYRP1 ECD-Fc(knob)-Avi / Fc(hole) (mouse) [IgG part: P01857].
Assay [2] addresses Cynomolgus TYRP1 ECD-Fc(knob)-Avi / Fc(hole) (cynomolgus) [IgG part: P01857].
Assay [3] concerns the target Human TYRP1 ECD-Fc(knob)-Avi / Fc(hole) (human) [IgG part: P01857].

Regarding parental TA99 antibody (Fab), the results for the Kd in assay [1], in assay [2] and in assay [3] were 310 pM, 120 pM and 90 pM, respectively.

In general, Kd refers to the equilibrium constant for the complex coming apart. The low end stands for tighter binding, the high end for weaker binding.
